# T1: Hop2-R176A–Mnd1 mutant complex (mouse, UniProt O35047 1-217; Q8K396 1-205, R176A)
# T1 sequence 1: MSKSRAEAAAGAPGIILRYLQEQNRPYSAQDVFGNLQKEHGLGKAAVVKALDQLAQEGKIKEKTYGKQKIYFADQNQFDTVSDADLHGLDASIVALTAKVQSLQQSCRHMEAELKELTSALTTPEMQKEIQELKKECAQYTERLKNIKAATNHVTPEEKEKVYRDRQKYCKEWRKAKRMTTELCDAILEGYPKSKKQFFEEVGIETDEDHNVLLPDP
# T1 sequence 2: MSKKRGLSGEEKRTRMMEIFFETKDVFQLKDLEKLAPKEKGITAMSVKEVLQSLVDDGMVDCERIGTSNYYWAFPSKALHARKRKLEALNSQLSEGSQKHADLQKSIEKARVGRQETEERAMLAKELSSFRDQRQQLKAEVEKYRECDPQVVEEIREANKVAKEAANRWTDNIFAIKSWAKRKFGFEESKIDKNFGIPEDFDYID
# B1: Human DMC1 (natural protein)
# chain: MKEDQVVAEEPGFQDEEESLFQDIDLLQKHGINVADIKKLKSVGICTIKGIQMTTRRALCNVKGLSEAKVDKIKEAANKLIEPGFLTAFEYSEKRKMVFHITTGSQEFDKLLGGGIESMAITEAFGEFRTGKTQLSHTLCVTAQLPGAGGYPGGKIIFIDTENTFRPDRLRDIADRFNVDHDAVLDNVLYARAYTSEHQMELLDYVAAKFHEEAGIFKLLIIDSIMALFRVDFSGRGELAERQQKLAQMLSRLQKISEEYNVAVFVTNQMTADPGATMTFQADPKKPIGGHILAHASTTRISLRKGRGELRIAKIYDSPEMPENEATFAITAGGIGDAKE
# Biological target: T1, Hop2-R176A–Mnd1 mutant complex
# Test: pull-down
binder,measurement,value
B1,binding result,binds

# Source: paper PMC3902922 (Nucleic Acids Research, 2013)
